Patent US20230002488A1 (SYSTIMMUNE, published 2023)

How the values were obtained:
SI-49P7 = target: T1, SI-49P7; experiment: BLI (Octet), biotinylated MICA on SA tips, GNC protein 0-100 nM as analyte
T1 construct: Antibody-like penta-GNC protein; NKG2D at D2, 4-1BBL trimer at D4; D1 CD3, D3 PD-L1, D6 CD19; also called αCD3×NKG2D×αPD-L1×41BBL trimer×αCD19

human EGFR = target: T2, human EGFR (human, UniProt P00533 25-645); experiment: BLI (Octet), GNC on AHC sensor, His-tagged human EGFR as analyte, global 1:1 fit
T2 construct: also called huEGFR; His-tagged human EGFR

human 4-1BB = target: T3, human 4-1BB (human, UniProt Q07011 24-186); experiment: BLI (Octet), GNC on AHC sensor, 100 nM antigen as analyte, 1:1 fit
T3 construct: Bought antigen; construct not described

human CD19 [1] = target: T4, human CD19 (human, UniProt P15391 20-291); experiment: as above
T4 sequence (looked up): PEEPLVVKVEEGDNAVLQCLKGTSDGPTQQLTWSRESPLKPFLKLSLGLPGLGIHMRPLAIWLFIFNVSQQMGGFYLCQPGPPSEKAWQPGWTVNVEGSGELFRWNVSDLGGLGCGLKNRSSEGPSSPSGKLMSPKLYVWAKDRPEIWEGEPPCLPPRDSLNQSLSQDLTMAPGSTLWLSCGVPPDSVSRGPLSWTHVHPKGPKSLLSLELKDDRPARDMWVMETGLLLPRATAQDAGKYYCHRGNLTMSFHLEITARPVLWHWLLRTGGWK

human PD-L1 = target: T5, human PD-L1 (human, UniProt Q9NZQ7 19-238); experiment: as above
T5 construct: Bought antigen; construct not described

human ROR1 = human ROR1 (human, UniProt Q01973 30-403, limits assumed); experiment: as above
Sequence of human ROR1 (Q01973 30-403 limits assumed): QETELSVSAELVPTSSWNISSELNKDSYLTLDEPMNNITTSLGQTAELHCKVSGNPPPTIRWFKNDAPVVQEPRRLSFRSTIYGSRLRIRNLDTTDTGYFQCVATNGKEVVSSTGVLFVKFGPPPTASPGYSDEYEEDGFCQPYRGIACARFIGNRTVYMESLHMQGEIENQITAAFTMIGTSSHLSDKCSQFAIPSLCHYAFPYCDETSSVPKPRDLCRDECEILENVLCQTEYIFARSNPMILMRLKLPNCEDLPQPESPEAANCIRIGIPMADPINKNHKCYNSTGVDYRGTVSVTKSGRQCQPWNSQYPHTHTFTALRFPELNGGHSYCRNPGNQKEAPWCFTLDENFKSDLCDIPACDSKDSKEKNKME

HER3 on BxPC3 cells = HER3 on BxPC3 cells (human, UniProt P21860 20-1342); experiment: cell-based or functional assay
human CD19 [2] = target: T4, human CD19; experiment: BLI (Octet), GNC on AHC sensor; strong binding, dissociation too slow to quantify KD
EGFRvIII = EGFRvIII (human, UniProt P00533 25-645, limits assumed); experiment: BLI (Octet), GNC on AHC sensor, 100 nM antigen as analyte, 1:1 fit

B1: biotinylated human MICA (ligand, UniProt Q29983 24-308, looked up)
chain: EPHSLRYNLTVLSWDGSVQSGFLTEVHLDGQPFLRCDRQKCRAKPQGQWAEDVLGNKTWDRETRDLTGNGKDLRMTLAHIKDQKEGLHSLQEIRVCEIHEDNSTRSSQHFYYDGELFLSQNLETKEWTMPQSSRAQTLAMNVRNFLKEDAMKTKTHYHAMHADCLQELRRYLKSGVVLRRTVPPMVNVTRSEASEGNITVTCRASGFYPWNITLSWRQDGVSLSHDTQQWGDVLPDGNGTYQTWVATRICQGEEQRFTCYMEHSGNHSTHPVPSGKVLVLQSHWQ
modifications: biotinylated (site not stated)
notes: Loaded on SA tips as ligand for SI-49P6 and SI-49P7
B1 gave a Kd (SI-49P7) of 10.7 nM.

B2: SI-55P3 (antibody, human IgG1, kappa)
heavy: not shown
light: ENVLTQSPASLSASPGERVTITCSASSSVSYMHWYQQKPGQAPKLWIYDTSKLASGVPSRFSGSGSGNDHTLTISSMEPEDFATYYCFQGSVYPFTFGQGTKVTVLGGGGSGGGGSGGGGSGGGGSQVTLKESGPGLVQPGQTLRLTCAFSGFSLSTSGMGVGWIRQPPGKGLEWLAHIWWDDDKRYNPALKSRLTISKDTSKNQVYLQMNSLDAEDTAVYYCARMELWSYYFDYWGQGTLVTVSSGGGGSGGGGSDPVLTQSPSSLSASVGDRVTISCQSSQSVAKNNNLAWFQQKPGQAPKLLIYSASTLAAGVPSRFSGSGSGTDFTLTISSVQPEDFATYYCSARDSGNIQSFGGGTKVEIKRTVAAPSVFIFPPSDEQLKSGTASVVCLLNNFYPREAKVQWKVDNALQSGNSQESVTEQDSKDSTYSLSSTLTLSKADYEKHKVYACEVTHQGLSSPVTKSFNRGEC
notes: Penta-specific: D1 humanized anti-EGFR H1 scFv, D2 CD3, D3 PD-L1, D4 4-1BB, D6 CD19
With B2 the Kd (human EGFR) was 18.1 nM.

B3: SI-79P2 (antibody, human IgG1, kappa)
heavy: not shown
light: ENVLTQSPASLSASPGERVTITCSASSSVSYMHWYQQKPGQAPKLWIYDTSKLASGVPSRFSGSGSGNDHTLTISSMEPEDFATYYCFQGSVYPFTFGQGTKVTVLGGGGSGGGGSGGGGSGGGGSQVTLKESGPGLVQPGQTLRLTCAFSGFSLSTSGMGVGWIRQPPGKGLEWLAHIWWDDDKRYNPALKSRLTISKDTSKNQVYLQMNSLDAEDTAVYYCARMELWSYYFDYWGQGTLVTVSSGGGGSGGGGSDPVLTQSPSSLSASVGDRVTISCQSSQSVAKNNNLAWFQQKPGQAPKLLIYSASTLAAGVPSRFSGSGSGTDFTLTISSVQPEDFATYYCSARDSGNIQSFGGGTKVEIKRTVAAPSVFIFPPSDEQLKSGTASVVCLLNNFYPREAKVQWKVDNALQSGNSQESVTEQDSKDSTYSLSSTLTLSKADYEKHKVYACEVTHQGLSSPVTKSFNRGEC
notes: Penta-specific: D1 humanized anti-EGFR H4 scFv, D2 CD3, D3 PD-L1, D4 4-1BB, D6 CD19
Binder B3 has a Kd (human EGFR) of 4.3 nM.

B4: SI-38E17 (antibody, V domains shown)
VH: EVQLVESGGGLVQPGGSLRLSCAASGFTISTNAMSWVRQAPGKGLEWIGVITGRDITYYASWAKGRFTISRDNSKNTLYLQMNSLRAEDTAVYYCARDGGSSAITSNNIWGQGTLVTVSS
VL: AIQLTQSPSSLSASVGDRVTITCRASQGISSALAWYQQKPGKAPKLLIYDASSLESGVPSRFSGSGSGTDFTLTISSLQPEDFATYYCQQFNSYPFTFGPGTKVDIK
Work on B4 yielded a Kd (human 4-1BB) of 8.19 nM, a Kd (human CD19 [1]) of 1.48 nM and a Kd (human PD-L1) of 0.524 nM.

B5: SI-35E20 (antibody)
chain 1: not shown
chain 2: AYDMTQSPSSVSASVGDRVTIKCQASEDIYSFLAWYQQKPGKAPKLLIHSASSLASGVPSRFSGSGSGTDFTLTISSLQPEDFATYYCQQGYGKNNVDNAFGGGTKVEIKRTVAAPSVFIFPPSDEQLKSGTASVVCLLNNFYPREAKVQWKVDNALQSGNSQESVTEQDSKDSTYSLSSTLTLSKADYEKHKVYACEVTHQGLSSPVTKSFNRGEC
With B5 the Kd (human 4-1BB) was 4.03 nM, the Kd (human ROR1) was 0.861 nM and the Kd (human PD-L1) was 0.379 nM.

B6: SI-38P12 (antibody, human IgG1, kappa)
heavy: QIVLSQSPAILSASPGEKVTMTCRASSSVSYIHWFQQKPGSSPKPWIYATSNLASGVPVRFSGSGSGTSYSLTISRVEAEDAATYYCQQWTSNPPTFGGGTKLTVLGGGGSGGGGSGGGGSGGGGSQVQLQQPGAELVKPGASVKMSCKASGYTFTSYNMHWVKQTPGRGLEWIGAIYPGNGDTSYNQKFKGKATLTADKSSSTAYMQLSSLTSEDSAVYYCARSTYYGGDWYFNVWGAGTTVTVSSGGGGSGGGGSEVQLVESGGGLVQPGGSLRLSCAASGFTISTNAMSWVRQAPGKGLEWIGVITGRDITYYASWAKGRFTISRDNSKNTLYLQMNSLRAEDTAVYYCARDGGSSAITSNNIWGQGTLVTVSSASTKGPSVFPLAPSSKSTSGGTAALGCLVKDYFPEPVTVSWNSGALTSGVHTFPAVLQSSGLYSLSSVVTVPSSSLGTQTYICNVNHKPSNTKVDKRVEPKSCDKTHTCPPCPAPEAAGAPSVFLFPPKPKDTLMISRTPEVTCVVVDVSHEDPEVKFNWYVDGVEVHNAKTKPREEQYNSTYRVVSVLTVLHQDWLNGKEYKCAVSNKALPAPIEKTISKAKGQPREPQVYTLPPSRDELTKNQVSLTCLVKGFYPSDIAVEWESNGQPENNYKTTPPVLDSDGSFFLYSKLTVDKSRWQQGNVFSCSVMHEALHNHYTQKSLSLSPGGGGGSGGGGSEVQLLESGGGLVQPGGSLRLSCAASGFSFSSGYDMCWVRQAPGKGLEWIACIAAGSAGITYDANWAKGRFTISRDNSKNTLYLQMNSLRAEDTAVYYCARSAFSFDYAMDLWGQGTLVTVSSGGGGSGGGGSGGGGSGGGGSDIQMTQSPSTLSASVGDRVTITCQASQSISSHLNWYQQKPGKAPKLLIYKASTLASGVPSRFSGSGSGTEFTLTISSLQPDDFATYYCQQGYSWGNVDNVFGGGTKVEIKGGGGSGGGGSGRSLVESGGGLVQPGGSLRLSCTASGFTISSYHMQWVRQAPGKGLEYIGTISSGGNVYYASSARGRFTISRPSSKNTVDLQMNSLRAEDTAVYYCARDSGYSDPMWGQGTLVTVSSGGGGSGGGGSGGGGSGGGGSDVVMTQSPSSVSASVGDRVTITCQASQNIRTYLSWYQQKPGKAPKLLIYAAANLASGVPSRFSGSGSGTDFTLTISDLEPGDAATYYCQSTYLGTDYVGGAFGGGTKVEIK
light: ENVLTQSPASLSASPGERVTITCSASSSVSYMHWYQQKPGQAPKLWIYDTSKLASGVPSRFSGSGSGNDHTLTISSMEPEDFATYYCFQGSVYPFTFGQGTKVTVLGGGGSGGGGSGGGGSGGGGSQVTLKESGPGLVQPGQTLRLTCAFSGFSLSTSGMGVGWIRQPPGKGLEWLAHIWWDDDKRYNPALKSRLTISKDTSKNQVYLQMNSLDAEDTAVYYCARMELWSYYFDYWGQGTLVTVSSGGGGSGGGGSDVVMTQSPSTLSASVGDRVTINCQASESISSWLAWYQQKPGKAPKLLIYEASKLASGVPSRFSGSGSGTEFTLTISSLQPDDFATYYCQGYFYFISRTYVNSFGGGTKVEIKRTVAAPSVFIFPPSDEQLKSGTASVVCLLNNFYPREAKVQWKVDNALQSGNSQESVTEQDSKDSTYSLSSTLTLSKADYEKHKVYACEVTHQGLSSPVTKSFNRGEC
B6 gave a Kd (human 4-1BB) of 4.85 nM, a Kd (human CD19 [1]) of 1.11 nM and a Kd (human PD-L1) of 0.195 nM.

B7: SI-55H11 (antibody, human IgG1, kappa)
heavy: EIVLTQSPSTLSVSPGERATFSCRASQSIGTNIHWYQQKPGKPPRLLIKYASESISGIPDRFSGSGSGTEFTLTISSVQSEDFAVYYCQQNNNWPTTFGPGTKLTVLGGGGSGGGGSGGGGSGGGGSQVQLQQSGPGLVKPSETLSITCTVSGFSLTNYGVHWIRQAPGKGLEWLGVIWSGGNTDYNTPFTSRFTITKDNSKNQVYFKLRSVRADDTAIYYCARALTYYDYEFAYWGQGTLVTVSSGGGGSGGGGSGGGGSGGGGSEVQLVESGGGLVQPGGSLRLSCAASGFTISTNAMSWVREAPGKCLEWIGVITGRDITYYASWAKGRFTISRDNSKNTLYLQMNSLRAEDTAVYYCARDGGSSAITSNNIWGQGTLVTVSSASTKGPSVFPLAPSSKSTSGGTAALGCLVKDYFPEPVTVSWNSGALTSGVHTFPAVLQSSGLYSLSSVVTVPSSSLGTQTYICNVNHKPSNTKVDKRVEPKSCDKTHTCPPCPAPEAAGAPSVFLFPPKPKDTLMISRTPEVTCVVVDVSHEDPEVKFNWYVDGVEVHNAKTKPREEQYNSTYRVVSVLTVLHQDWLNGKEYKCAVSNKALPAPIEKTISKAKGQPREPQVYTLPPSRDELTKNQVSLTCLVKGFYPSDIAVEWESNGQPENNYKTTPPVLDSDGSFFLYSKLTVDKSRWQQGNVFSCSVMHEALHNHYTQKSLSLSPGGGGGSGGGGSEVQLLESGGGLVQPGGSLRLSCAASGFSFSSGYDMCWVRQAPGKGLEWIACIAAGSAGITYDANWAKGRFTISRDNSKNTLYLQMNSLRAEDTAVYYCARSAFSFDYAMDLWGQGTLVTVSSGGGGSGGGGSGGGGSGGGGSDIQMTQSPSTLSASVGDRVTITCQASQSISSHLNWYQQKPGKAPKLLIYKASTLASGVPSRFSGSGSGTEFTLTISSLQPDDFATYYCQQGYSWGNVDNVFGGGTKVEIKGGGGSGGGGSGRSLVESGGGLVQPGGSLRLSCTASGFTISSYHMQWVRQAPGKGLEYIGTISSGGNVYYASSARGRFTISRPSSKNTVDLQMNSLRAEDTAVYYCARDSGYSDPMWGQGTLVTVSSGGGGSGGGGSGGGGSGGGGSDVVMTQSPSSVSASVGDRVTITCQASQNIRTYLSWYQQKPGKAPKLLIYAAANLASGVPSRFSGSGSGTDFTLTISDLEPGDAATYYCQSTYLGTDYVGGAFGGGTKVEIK
light: ENVLTQSPASLSASPGERVTITCSASSSVSYMHWYQQKPGQAPKLWIYDTSKLASGVPSRFSGSGSGNDHTLTISSMEPEDFATYYCFQGSVYPFTFGQGTKVTVLGGGGSGGGGSGGGGSGGGGSQVTLKESGPGLVQPGQTLSLTCAFSGFSLSTSGMGVGWIRQPPGKGLEWLAHIWWDDDKRYNPALKSRLTISKDTSKNQVYLQMNSLDAEDTAVYYCARMELWSYYFDYWGQGTLVTVSSGGGGSGGGGSDVVMTQSPSTLSASVGDRVTINCQASESISSWLAWYQQKPGKAPKLLIYEASKLASGVPSRFSGSGSGTEFTLTISSLQPDDFATYYCQGYFYFISRTYVNSFGCGTKVEIKRTVAAPSVFIFPPSDEQLKSGTASVVCLLNNFYPREAKVQWKVDNALQSGNSQESVTEQDSKDSTYSLSSTLTLSKADYEKHKVYACEVTHQGLSSPVTKSFNRGECGGGGSGGGGSGGGGSQSALTQPASVSGSPGQSITISCTGTSSDVGGYNFVSWYQQHPGKAPKLMIYDVSDRPSGVSDRFSGSKSGNTASLIISGLQADDEADYYCSSYGSSSTHVIFGGGTKVTVLGGGGSGGGGSGGGGSGGGGSQVQLQESGGGLVKPGGSLSLSCAASGFTFSSYWMSWVRQAPGKGLEWVANINRDGSASYYVDSVKGRFTISRDDAKNSLYLQMNSLRAEDTAVYYCARDRGVGYFDLWGRGTLVTVSS
notes: also called hexa-GNC antibody SI-55H11
For B7, the “TDCC EC50 (pM), BxPC3 target cells” value (HER3 on BxPC3 cells) was 0.0939 pM, the Kd (human 4-1BB) was 4.91 nM and the Kd (human CD19 [1]) was 6.8 nM. It also gave a Kd (human PD-L1) of 0.737 nM.

B8: SI-55H12 (antibody, human IgG1, kappa)
heavy: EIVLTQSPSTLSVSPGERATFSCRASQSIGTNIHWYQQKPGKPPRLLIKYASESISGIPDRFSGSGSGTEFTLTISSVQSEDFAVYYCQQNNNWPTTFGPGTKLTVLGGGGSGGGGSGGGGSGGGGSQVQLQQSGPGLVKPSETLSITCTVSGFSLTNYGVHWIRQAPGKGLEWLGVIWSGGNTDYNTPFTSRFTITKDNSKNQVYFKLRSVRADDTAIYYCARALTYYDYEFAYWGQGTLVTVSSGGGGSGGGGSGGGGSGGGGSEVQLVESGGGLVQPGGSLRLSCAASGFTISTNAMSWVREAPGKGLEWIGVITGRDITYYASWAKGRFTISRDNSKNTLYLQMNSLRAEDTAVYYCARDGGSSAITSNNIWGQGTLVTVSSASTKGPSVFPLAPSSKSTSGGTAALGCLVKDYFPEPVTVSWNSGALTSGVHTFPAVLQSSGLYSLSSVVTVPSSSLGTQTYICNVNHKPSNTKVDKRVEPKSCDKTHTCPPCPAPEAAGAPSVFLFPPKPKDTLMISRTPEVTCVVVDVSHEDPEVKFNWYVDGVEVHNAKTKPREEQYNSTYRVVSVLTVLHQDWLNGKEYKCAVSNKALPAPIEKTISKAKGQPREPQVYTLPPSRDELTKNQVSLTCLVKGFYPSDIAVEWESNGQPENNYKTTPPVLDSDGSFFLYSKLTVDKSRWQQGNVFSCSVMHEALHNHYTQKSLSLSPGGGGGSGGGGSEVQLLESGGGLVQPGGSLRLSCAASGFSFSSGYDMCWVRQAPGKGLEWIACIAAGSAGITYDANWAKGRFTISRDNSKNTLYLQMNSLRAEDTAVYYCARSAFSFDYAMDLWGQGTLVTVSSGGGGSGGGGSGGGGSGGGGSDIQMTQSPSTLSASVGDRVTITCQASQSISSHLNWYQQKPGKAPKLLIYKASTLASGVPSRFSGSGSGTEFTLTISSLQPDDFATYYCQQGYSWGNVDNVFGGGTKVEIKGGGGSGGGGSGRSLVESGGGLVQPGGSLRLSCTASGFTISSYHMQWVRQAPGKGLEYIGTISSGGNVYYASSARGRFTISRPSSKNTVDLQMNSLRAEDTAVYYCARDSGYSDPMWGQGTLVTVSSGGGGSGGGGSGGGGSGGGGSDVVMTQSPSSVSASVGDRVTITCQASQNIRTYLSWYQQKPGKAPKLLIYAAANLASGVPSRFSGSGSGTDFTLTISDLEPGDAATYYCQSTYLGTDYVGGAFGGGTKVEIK
light: ENVLTQSPASLSASPGERVTITCSASSSVSYMHWYQQKPGQAPKLWIYDTSKLASGVPSRFSGSGSGNDHTLTISSMEPEDFATYYCFQGSVYPFTFGQGTKVTVLGGGGSGGGGSGGGGSGGGGSQVTLKESGPGLVQPGQTLSLTCAFSGFSLSTSGMGVGWIRQPPGKGLEWLAHIWWDDDKRYNPALKSRLTISKDTSKNQVYLQMNSLDAEDTAVYYCARMELWSYYFDYWGQGTLVTVSSGGGGSGGGGSDVVMTQSPSTLSASVGDRVTINCQASESISSWLAWYQQKPGKAPKLLIYEASKLASGVPSRFSGSGSGTEFTLTISSLQPDDFATYYCQGYFYFISRTYVNSFGGGTKVEIKRTVAAPSVFIFPPSDEQLKSGTASVVCLLNNFYPREAKVQWKVDNALQSGNSQESVTEQDSKDSTYSLSSTLTLSKADYEKHKVYACEVTHQGLSSPVTKSFNRGECGGGGSGGGGSGGGGSQSALTQPASVSGSPGQSITISCTGTSSDVGGYNFVSWYQQHPGKAPKLMIYDVSDRPSGVSDRFSGSKSGNTASLIISGLQADDEADYYCSSYGSSSTHVIFGGGTKVTVLGGGGSGGGGSGGGGSGGGGSQVQLQESGGGLVKPGGSLSLSCAASGFTFSSYWMSWVRQAPGKGLEWVANINRDGSASYYVDSVKGRFTISRDDAKNSLYLQMNSLRAEDTAVYYCARDRGVGYFDLWGRGTLVTVSS
B8 was tested, and the binding result (human CD19 [2]) was “binds”, the Kd (human 4-1BB) was 7.87 nM and the Kd (human PD-L1) was 0.25 nM.

B9: SI-39E18 (antibody)
chain 1: not shown
chain 2: DILMTQSPSSMSVSLGDTVSITCHSSQDINSNIGWLQQRPGKSFKGLIYHGTNLDDEVPSRFSGSGSGADYSLTISSLESEDFADYYCVQYAQFPWTFGGGTKLEIKRTVAAPSVFIFPPSDEQLKSGTASVVCLLNNFYPREAKVQWKVDNALQSGNSQESVTEQDSKDSTYSLSSTLTLSKADYEKHKVYACEVTHQGLSSPVTKSFNRGEC
With B9 the Kd (human 4-1BB) was 18.1 nM, the Kd (EGFRvIII) was 16.4 nM and the Kd (human PD-L1) was 0.421 nM.

B10: SI-38P13 (antibody, human IgG1, kappa)
heavy: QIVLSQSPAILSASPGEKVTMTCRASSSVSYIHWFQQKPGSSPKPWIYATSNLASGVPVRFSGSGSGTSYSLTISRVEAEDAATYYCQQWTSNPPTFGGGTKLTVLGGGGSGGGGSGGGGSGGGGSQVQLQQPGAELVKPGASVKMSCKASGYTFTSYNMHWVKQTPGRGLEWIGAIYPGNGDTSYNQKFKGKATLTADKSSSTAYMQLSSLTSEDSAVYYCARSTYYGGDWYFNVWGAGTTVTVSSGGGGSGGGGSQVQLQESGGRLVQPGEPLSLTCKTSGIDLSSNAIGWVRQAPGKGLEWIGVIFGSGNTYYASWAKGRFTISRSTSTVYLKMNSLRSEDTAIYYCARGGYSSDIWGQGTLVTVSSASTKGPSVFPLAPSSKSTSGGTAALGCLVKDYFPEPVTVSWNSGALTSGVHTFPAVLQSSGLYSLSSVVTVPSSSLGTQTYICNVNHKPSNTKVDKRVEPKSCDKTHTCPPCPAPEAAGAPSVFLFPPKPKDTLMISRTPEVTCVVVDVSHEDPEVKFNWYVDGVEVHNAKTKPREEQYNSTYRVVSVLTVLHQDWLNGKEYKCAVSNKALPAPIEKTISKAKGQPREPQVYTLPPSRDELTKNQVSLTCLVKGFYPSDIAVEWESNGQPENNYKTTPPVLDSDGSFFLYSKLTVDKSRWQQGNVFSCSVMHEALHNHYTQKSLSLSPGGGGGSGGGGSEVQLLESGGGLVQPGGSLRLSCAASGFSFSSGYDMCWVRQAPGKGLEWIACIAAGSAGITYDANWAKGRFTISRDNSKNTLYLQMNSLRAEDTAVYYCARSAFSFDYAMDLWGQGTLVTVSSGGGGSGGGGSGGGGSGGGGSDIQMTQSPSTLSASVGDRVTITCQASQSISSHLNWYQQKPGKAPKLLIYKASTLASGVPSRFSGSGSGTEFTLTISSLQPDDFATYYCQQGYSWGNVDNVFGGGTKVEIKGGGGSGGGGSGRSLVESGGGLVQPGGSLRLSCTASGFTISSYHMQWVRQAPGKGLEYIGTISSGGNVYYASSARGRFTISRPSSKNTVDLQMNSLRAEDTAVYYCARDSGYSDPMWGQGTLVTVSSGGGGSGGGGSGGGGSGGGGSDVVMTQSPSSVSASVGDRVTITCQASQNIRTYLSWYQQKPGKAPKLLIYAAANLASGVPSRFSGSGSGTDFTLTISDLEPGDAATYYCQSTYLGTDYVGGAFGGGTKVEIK
light: DPVLTQSPSSLSASVGDRVTISCQSSQSVAKNNNLAWFQQKPGQAPKLLIYSASTLAAGVPSRFSGSGSGTDFTLTISSVQPEDFATYYCSARDSGNIQSFGGGTKVEIKRTVAAPSVFIFPPSDEQLKSGTASVVCLLNNFYPREAKVQWKVDNALQSGNSQESVTEQDSKDSTYSLSSTLTLSKADYEKHKVYACEVTHQGLSSPVTKSFNRGECGGGGSGGGGSGGGGSQVTLKESGPGLVQPGQTLRLTCAFSGFSLSTSGMGVGWIRQPPGKGLEWLAHIWWDDDKRYNPALKSRLTISKDTSKNQVYLQMNSLDAEDTAVYYCARMELWSYYFDYWGQGTLVTVSSGGGGSGGGGSGGGGSGGGGSENVLTQSPASLSASPGERVTITCSASSSVSYMHWYQQKPGQAPKLWIYDTSKLASGVPSRFSGSGSGNDHTLTISSMEPEDFATYYCFQGSVYPFTFGQGTKVTVL
B10 showed a Kd (human 4-1BB) of 8.54 nM, a Kd (human CD19 [1]) of 0.181 nM and a Kd (human PD-L1) of 0.731 nM.
